Paper PMC5336313

Assay: anti-Myc western blot of cell extracts and culture media
Details: glycan lost; control: wild-type C-terminally tagged full-length PEBP4

B1: human PEBP4 (hPEBP4): T171A (protein)
parent chain: MGWTMRLVTAALLLGLMMVVTGDEDENSPCAHEALLDEDTLFCQGLEVFYPELGNIGCKVVPDCNNYRQKITSWMEPIVKFPGAVDGATYILVMVDPDAPSRAEPRQRFWRHWLVTDIKGADLKKGKIQGQELSAYQAPSPPAHSGFHRYQFFVYLQEGKVISLLPKENKTRGSWKMDRFLNRFHLGEPEASTQFMTQNYQDSPTLQAPRERASEPKHKNQAEIAAC
With B1 the expression_or_secretion was “no change”.
